Experimental data from patent publication US7034002.

The substances below were run against Angiotensin converting enzyme (rabbit lung acetone powder, Sigma; supernatant of the extract) (rabbit) (UniProt P12822) (assay: cell-based or functional assay).
Sequence of UniProt P12822 (P12822 34-1310 limits assumed): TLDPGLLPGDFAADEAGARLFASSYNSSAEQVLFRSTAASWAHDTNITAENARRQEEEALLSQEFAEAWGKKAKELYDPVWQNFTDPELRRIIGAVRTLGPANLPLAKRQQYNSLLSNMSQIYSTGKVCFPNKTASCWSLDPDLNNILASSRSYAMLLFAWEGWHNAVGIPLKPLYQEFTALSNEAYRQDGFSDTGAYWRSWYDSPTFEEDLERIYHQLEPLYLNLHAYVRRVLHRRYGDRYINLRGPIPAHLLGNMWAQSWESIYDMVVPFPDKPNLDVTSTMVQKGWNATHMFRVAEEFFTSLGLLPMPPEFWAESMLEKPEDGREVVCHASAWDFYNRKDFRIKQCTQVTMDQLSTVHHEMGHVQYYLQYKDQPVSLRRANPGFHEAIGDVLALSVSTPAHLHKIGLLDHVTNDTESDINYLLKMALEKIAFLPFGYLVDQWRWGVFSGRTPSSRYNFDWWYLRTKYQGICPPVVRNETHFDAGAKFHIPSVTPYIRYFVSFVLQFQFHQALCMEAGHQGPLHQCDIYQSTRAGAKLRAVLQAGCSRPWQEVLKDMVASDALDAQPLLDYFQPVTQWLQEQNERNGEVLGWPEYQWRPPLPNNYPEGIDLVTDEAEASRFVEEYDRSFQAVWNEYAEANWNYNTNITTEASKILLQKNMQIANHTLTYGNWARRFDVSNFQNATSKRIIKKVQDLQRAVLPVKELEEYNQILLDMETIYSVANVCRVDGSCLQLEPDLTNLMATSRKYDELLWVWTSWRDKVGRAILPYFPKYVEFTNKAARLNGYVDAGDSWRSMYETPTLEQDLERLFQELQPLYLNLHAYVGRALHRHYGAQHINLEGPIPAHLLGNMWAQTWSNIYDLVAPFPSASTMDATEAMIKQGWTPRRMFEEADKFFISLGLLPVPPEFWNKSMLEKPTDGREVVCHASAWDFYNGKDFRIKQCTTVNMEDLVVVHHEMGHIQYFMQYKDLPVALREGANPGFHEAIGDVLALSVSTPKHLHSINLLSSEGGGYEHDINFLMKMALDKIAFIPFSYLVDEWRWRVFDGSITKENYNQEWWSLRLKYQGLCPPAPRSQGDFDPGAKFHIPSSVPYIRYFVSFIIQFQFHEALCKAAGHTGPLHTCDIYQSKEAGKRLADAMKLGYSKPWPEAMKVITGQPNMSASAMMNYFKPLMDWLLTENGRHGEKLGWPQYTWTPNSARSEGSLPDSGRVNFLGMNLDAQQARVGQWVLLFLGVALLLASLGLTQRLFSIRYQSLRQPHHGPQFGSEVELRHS

Substance	IC50 (angiotensin converting enzyme inhibitory activity, Bz-Gly-His-Leu substrate, OD228 of hippuric acid)
Fraction E-1: concentrated thermolysin hydrolysate of the hot-water-extracted residue of dried bonito	80 µg/mL
Fraction E-2: membrane-concentrated fraction of E-1	300 µg/mL
Fraction E-3: membrane-penetrating fraction of E-1	30 µg/mL
Fraction E-7: membrane-concentrated fraction of E-6	310 µg/mL
Fraction E-10: ethanol-soluble fraction of E-6	50 µg/mL

Second part, the substance after the results:

IC50 (angiotensin converting enzyme inhibitory activity, Bz-Gly-His-Leu substrate, OD228 of hippuric acid)	Substance
200 µg/mL	Fraction E-4: ethanol precipitate of E-1
40 µg/mL	Fraction E-5: ethanol-soluble fraction of E-1
110 µg/mL	Fraction E-6: concentrated thermolysin hydrolysate of homogenized dried bonito
35 µg/mL	Fraction E-8: membrane-penetrating fraction of E-6
200 µg/mL	Fraction E-9: ethanol precipitate of E-6
